According to the supplement of paper PMC10065799, “High-throughput profiling of sequence recognition by tyrosine kinases and SH2 domains using bacterial peptide display” (eLife, 2023):

Experiments:
[1] = target: EPHB2 (UniProt P29323); assay: phosphorylation enrichment, bacterial display (enrichment ratio); higher = better substrate or ligand; peptides without Tyr show the background
[2] = test system: Fer (mouse); assay: as above
[3] = target: EPHB1 (UniProt P54762); assay: as above
[4] = target: Hck (UniProt P08631); assay: as above
Sequence of Hck (P08631 whole entry, looked up): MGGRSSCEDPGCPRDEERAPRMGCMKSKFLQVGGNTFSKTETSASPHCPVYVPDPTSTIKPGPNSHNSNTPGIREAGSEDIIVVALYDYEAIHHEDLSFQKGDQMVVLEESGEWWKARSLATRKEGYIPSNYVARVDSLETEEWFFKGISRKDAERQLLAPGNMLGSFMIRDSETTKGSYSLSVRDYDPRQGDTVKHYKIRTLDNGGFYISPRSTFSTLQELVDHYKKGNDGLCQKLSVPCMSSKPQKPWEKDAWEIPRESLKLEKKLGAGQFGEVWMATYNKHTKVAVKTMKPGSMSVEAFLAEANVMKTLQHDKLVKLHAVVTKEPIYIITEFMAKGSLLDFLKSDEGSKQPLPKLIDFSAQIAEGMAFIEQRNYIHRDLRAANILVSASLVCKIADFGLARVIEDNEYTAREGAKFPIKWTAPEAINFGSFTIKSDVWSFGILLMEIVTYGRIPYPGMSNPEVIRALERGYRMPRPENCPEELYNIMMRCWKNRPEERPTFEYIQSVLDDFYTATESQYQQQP

[5] = target: FGFR1 (UniProt P11362); assay: as above
Sequence of FGFR1 (P11362 whole entry, looked up): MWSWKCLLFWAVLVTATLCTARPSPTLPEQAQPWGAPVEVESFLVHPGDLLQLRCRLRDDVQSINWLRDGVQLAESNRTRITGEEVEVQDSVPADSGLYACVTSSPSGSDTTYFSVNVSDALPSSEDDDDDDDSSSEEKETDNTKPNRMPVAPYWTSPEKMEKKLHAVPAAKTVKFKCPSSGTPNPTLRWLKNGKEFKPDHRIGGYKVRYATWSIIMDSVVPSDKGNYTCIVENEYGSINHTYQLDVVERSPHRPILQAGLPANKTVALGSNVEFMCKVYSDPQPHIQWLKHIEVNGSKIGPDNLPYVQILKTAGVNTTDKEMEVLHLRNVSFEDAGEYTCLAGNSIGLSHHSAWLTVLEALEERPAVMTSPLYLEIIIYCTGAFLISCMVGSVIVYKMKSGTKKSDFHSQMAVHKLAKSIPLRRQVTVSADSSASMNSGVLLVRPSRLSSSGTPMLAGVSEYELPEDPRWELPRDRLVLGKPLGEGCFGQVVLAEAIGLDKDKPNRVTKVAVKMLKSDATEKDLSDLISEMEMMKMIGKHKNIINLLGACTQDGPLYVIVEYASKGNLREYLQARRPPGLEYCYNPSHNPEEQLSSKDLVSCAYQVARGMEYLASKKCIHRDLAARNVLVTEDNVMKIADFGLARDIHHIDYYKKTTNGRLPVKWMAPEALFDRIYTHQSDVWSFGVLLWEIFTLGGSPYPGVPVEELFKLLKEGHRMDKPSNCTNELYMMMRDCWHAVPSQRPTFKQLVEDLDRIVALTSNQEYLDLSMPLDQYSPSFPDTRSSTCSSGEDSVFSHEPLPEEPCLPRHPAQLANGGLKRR

[6] = target: Fyn (UniProt P06241); assay: as above
Sequence of Fyn (P06241 whole entry, looked up): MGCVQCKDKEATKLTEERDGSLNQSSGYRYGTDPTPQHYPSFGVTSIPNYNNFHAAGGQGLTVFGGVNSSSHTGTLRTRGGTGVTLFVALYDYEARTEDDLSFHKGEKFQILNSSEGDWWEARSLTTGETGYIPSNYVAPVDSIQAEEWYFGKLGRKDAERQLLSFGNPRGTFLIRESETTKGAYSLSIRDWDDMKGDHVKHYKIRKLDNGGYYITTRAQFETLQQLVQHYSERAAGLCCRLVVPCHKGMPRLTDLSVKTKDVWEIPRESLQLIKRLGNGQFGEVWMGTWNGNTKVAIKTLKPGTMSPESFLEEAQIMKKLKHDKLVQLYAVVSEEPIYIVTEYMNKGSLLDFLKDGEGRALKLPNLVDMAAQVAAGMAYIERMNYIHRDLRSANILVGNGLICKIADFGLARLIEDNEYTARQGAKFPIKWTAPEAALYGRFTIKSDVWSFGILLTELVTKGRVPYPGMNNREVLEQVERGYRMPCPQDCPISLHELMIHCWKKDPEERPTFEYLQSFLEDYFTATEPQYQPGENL

[7] = target: Jak2 (UniProt O60674); assay: as above
Sequence of Jak2 (O60674 whole entry, looked up): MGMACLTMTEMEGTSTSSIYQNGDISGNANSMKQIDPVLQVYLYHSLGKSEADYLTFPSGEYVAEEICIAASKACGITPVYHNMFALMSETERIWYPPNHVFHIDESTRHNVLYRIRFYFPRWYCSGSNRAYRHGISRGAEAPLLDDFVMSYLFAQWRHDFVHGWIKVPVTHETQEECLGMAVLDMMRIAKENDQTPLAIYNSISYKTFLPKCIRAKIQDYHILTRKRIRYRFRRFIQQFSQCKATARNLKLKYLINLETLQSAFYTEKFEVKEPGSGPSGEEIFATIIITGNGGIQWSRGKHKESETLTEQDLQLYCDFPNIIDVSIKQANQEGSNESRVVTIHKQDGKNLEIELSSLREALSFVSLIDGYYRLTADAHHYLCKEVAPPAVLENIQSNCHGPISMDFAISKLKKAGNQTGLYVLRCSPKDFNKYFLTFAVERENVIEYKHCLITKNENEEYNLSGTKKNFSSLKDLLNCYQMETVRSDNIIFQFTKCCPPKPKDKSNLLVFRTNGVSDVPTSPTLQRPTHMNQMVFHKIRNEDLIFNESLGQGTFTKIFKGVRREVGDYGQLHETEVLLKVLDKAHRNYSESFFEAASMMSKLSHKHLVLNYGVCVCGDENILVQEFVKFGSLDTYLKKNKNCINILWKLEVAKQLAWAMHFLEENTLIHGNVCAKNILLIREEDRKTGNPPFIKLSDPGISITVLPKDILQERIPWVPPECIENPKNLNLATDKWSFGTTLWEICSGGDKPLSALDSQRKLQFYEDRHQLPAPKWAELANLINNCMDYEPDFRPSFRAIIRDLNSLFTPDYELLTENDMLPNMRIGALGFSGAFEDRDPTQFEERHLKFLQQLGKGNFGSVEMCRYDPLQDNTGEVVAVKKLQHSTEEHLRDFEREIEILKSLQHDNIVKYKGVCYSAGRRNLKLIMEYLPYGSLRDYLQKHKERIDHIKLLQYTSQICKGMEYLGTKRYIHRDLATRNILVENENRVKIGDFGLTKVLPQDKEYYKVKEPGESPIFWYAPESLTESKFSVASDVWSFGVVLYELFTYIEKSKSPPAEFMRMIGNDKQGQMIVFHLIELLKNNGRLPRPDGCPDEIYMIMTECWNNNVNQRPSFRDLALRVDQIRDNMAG

[8] = target: Fes (UniProt P07332); assay: as above
Sequence of Fes (P07332 whole entry, looked up): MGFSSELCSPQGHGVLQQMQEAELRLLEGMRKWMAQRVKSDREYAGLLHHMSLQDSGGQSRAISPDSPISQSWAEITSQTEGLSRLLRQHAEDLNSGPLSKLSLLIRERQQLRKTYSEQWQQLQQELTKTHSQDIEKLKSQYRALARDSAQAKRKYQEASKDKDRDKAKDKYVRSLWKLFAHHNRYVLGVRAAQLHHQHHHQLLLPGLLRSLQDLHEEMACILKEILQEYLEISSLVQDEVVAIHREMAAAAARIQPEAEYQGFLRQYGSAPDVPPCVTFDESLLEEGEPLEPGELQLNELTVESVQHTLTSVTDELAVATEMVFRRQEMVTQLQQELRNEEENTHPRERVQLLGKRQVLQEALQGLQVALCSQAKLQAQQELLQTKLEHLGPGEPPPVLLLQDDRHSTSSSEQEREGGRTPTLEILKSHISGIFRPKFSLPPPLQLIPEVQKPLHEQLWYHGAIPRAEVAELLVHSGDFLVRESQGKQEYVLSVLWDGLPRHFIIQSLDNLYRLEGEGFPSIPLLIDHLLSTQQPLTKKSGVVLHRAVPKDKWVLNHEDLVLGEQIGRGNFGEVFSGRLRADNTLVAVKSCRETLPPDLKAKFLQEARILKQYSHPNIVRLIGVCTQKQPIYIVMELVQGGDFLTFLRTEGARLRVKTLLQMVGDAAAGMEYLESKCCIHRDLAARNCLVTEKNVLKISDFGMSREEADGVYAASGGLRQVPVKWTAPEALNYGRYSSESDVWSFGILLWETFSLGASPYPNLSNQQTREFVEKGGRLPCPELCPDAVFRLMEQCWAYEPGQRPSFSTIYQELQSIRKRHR

[9] = target: FGFR3 (UniProt P22607); assay: as above
[10] = target: MERTK (UniProt Q12866); assay: as above
[11] = test system: AncSZ; assay: as above
[12] = test system: c-Src; assay: as above
[13] = test system: c-Abl (mouse); assay: as above
[14] = target: SHP2-C SH2; assay: SH2 binding enrichment of the phosphorylated peptide, bacterial display (enrichment ratio); higher = better substrate or ligand; peptides without Tyr show the background
[15] = target: Grb2 SH2 (UniProt P62993); assay: as above
[16] = target: c-Src SH2; assay: as above
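Throughout, for SH2 binding enrichment of the phosphorylated peptide, bacterial display: peptide library displayed on the E. coli surface as eCPX fusions, selected cells deep-sequenced, score is each peptide's frequency after selection divided by its frequency in the input.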
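Throughout, for phosphorylation enrichment, bacterial display: 11-residue human phosphosite peptides and single-mutation variants displayed on the E. coli surface, counted by deep sequencing, each peptide's frequency after selection divided by its frequency in the unselected input library; frequency after pTyr selection over input frequency; kinase dosed for 20-30% of maximal phosphorylation in three min.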

Sequence of EPHB1 (P54762 whole entry, looked up): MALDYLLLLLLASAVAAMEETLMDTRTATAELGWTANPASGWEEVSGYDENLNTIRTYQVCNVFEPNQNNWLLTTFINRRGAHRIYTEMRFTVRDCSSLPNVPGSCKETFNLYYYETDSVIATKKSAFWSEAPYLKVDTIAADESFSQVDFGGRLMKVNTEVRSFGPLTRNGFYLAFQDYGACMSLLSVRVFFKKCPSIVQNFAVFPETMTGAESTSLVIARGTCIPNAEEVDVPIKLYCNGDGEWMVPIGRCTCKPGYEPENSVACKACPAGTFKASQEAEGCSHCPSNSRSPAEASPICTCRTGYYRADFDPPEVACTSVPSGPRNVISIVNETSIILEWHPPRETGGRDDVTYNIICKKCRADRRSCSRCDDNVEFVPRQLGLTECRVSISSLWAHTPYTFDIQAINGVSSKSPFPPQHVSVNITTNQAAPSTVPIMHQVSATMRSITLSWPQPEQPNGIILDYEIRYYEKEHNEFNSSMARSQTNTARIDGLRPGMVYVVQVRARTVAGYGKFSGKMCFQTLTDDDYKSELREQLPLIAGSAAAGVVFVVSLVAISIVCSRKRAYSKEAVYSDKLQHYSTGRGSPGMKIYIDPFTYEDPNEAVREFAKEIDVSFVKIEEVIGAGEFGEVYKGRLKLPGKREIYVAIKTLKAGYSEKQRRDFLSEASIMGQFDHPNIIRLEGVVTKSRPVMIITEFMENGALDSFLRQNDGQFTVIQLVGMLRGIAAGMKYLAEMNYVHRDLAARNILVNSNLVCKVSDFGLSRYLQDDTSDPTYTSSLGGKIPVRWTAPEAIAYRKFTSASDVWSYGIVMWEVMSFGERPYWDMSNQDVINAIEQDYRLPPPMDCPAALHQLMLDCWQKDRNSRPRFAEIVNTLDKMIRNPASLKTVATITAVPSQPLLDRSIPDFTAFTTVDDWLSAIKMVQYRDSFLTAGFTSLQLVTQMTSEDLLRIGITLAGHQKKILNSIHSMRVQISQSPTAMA

SH2 binding enrichment [14] | SH2 binding enrichment [15] | SH2 binding enrichment [16] | Sequence | phosphorylation enrichment [1] | phosphorylation enrichment [2] | phosphorylation enrichment [3] | phosphorylation enrichment [4] | phosphorylation enrichment [5] | phosphorylation enrichment [6] | phosphorylation enrichment [7] | phosphorylation enrichment [8] | phosphorylation enrichment [9] | phosphorylation enrichment [10] | phosphorylation enrichment [11] | phosphorylation enrichment [12] | phosphorylation enrichment [13]
0.553 | 0.861 | 0.545 | TVQIMYGCDVG [HLA-A_Y123_I119V] | 0.773 | 0.611 | 0.676 | 0.567 | 0.539 | 0.575 | 0.955 | 1.22 | 0.917 | 0.444 | 0.945 | 0.47 | 0.737
0.766 | 0.88 | 0.624 | MDFRSYPHEFG [RBM10_Y44_R46H_YF] | 0.402 | 0.354 | 0.434 | 0.335 | 0.464 | 0.397 | 0.536 | 0.69 | 0.526 | 0.366 | 0.64 | 0.317 | 0.465
0.472 | 0.798 | 0.505 | VTGWGYRKLRD [F11_Y521] | 0.517 | 0.385 | 0.364 | 0.42 | 0.392 | 0.463 | 0.655 | 0.703 | 0.419 | 0.51 | 0.792 | 0.479 | 0.477
0.377 | 0.847 | 0.581 | RPFFLYVAFHD [SGSH_Y174] | 0.579 | 0.47 | 0.731 | 0.58 | 0.503 | 0.381 | 1.54 | 1.58 | 0.941 | 0.442 | 1.28 | 0.43 | 1.24
0.571 | 0.825 | 0.393 | CSPLLYRVIMS [OR8D4_Y132] | 0.695 | 0.577 | 0.691 | 0.6 | 0.611 | 0.527 | 0.992 | 1.25 | 0.75 | 0.507 | 1.22 | 0.449 | 0.851
0.491 | 0.626 | 0.377 | TGEDWYVLVRV [SF3B3_Y904_G908R] | 0.64 | 0.524 | 0.893 | 0.561 | 0.405 | 0.433 | 1.21 | 1.42 | 0.827 | 0.364 | 1.37 | 0.385 | 0.954
0.597 | 0.793 | 0.374 | YSKDNYKRVTG [PANK2_Y405] | 0.44 | 0.494 | 0.362 | 0.344 | 0.456 | 0.387 | 0.6 | 0.611 | 0.4 | 0.488 | 0.675 | 0.44 | 0.52
0.552 | 0.771 | 0.392 | ISGGGYRARPA [FGB_Y71] | 0.308 | 0.312 | 0.402 | 0.404 | 0.345 | 0.416 | 0.603 | 0.665 | 0.404 | 0.333 | 0.485 | 0.408 | 0.515
0.469 | 0.681 | 0.59 | RGKDNYETSQL [SPP1_Y225_S224N] | 0.628 | 0.541 | 0.662 | 0.56 | 0.565 | 0.549 | 0.74 | 0.773 | 0.634 | 0.689 | 0.857 | 0.681 | 0.62
0.549 | 0.752 | 0.573 | GDDLSYGDVPP [IRS1_Y151_E147D] | 0.588 | 0.61 | 0.543 | 0.535 | 0.479 | 0.426 | 1.04 | 1.24 | 0.576 | 0.413 | 1.11 | 0.63 | 0.751
0.747 | 0.792 | 0.484 | EHVMPYAANKN [GRIN2A_Y1431] | 0.302 | 0.253 | 0.392 | 0.358 | 0.361 | 0.313 | 0.56 | 0.463 | 0.344 | 0.322 | 0.53 | 0.375 | 0.374
0.85 | 0.914 | 0.583 | FAREGYSALPQ [SARS2_Y52_YF] | 0.466 | 0.441 | 0.426 | 0.524 | 0.471 | 0.421 | 0.652 | 0.666 | 0.446 | 0.502 | 0.603 | 0.43 | 0.564
0.577 | 0.864 | 0.607 | VITDFYVDMKF [MPP4_Y567_YF] | 0.824 | 0.925 | 1.31 | 0.624 | 1.42 | 0.457 | 1.27 | 1.32 | 1.36 | 0.52 | 1.23 | 0.503 | 0.727
0.863 | 0.969 | 0.5 | TEQDPSNNIVR [MMUT_Y364_Y364S] | 0.46 | 0.408 | 0.468 | 0.408 | 0.55 | 0.492 | 0.771 | 1 | 0.557 | 0.464 | 0.824 | 0.492 | 0.768
0.586 | 0.879 | 0.665 | PGQRVYVVAER [SHH_Y316] | 0.537 | 0.494 | 0.63 | 0.57 | 0.522 | 0.395 | 0.556 | 0.91 | 0.524 | 0.447 | 0.883 | 0.464 | 0.503
0.908 | 1.16 | 1.2 | RGFRVYFTPDS [PTPRF_Y450_YF] | 0.749 | 0.469 | 0.583 | 0.542 | 0.545 | 0.4 | 1.76 | 1.71 | 0.877 | 0.538 | 1.31 | 0.714 | 1.2

Second part, the sequence before the results:

Sequence | SH2 binding enrichment [14] | SH2 binding enrichment [15] | SH2 binding enrichment [16] | phosphorylation enrichment [1] | phosphorylation enrichment [2] | phosphorylation enrichment [3] | phosphorylation enrichment [4] | phosphorylation enrichment [5] | phosphorylation enrichment [6] | phosphorylation enrichment [7] | phosphorylation enrichment [8] | phosphorylation enrichment [9] | phosphorylation enrichment [10] | phosphorylation enrichment [11] | phosphorylation enrichment [12] | phosphorylation enrichment [13]
LAGRFYALRSM [CKB_Y174_K177R_YF] | 0.874 | 1.38 | 1.2 | 0.944 | 0.843 | 0.583 | 0.821 | 0.598 | 0.737 | 0.59 | 1.92 | 1.84 | 0.509 | 1.29 | 0.571 | 0.642
LIHLHYIRRDF [BBS4_Y43_K46R_YF] | 0.817 | 1.28 | 0.854 | 0.707 | 0.564 | 0.669 | 0.581 | 0.521 | 0.503 | 0.972 | 1.02 | 0.732 | 0.419 | 1.1 | 0.448 | 0.333
MSRLKYPVSQQ [BTK_Y375_I370M] | 0.78 | 1.03 | 0.608 | 0.741 | 0.375 | 0.413 | 0.435 | 0.434 | 0.473 | 0.54 | 0.706 | 0.621 | 0.478 | 0.573 | 0.491 | 0.573
GYRPVYSEDEQ [CHST6_Y362] | 0.669 | 0.921 | 0.692 | 0.762 | 0.643 | 0.677 | 0.49 | 0.471 | 0.61 | 1.16 | 1.24 | 0.806 | 0.48 | 1.26 | 0.636 | 0.774
FDCKWYIPLTD [BCR_Y756_YF] | 0.745 | 0.772 | 0.482 | 0.818 | 0.66 | 0.998 | 0.581 | 0.661 | 0.41 | 1.44 | 1.49 | 1.06 | 0.625 | 1.45 | 0.466 | 0.826
ISGLKYPVSQQ [BTK_Y375_R372G] | 0.63 | 0.879 | 0.417 | 0.529 | 0.371 | 0.501 | 0.448 | 0.428 | 0.441 | 0.516 | 0.548 | 0.459 | 0.474 | 0.529 | 0.407 | 0.392
IQVDAYFSPIH [ADSL_Y432] | 0.529 | 0.797 | 0.604 | 0.75 | 0.652 | 0.738 | 0.684 | 0.638 | 0.605 | 2.15 | 1.33 | 0.772 | 0.551 | 1.17 | 0.484 | 0.936
EPGNLYIAKVE [CNTN4_Y180_T176P] | 0.553 | 0.788 | 0.405 | 0.482 | 0.408 | 0.454 | 0.502 | 0.435 | 0.386 | 0.898 | 1.09 | 0.605 | 0.347 | 0.833 | 0.439 | 0.665
YVSSFYHAFSG [ACTN4_Y265] | 1.79 | 1.2 | 2.2 | 1.41 | 0.564 | 2.21 | 2.82 | 3.31 | 2.76 | 0.895 | 0.884 | 2.32 | 8.9 | 1.04 | 3.68 | 1.28
FAKTQYPDIYA [CRX_Y63_V66I] | 1 | 0.881 | 0.533 | 0.427 | 0.359 | 0.355 | 0.709 | 0.449 | 0.519 | 0.563 | 0.693 | 0.668 | 0.396 | 0.518 | 0.572 | 0.526
GKGGSYSQAAC [HLA-B_Y344] | 0.881 | 0.971 | 0.746 | 0.365 | 0.408 | 0.352 | 0.419 | 0.385 | 0.342 | 0.569 | 0.649 | 0.444 | 0.377 | 0.452 | 0.396 | 0.625
DEEEEYEFMNR [ERBB3_Y1197_D1194E_YF] | 0.747 | 0.946 | 0.637 | 0.76 | 0.485 | 0.62 | 0.522 | 0.572 | 0.512 | 0.903 | 1.07 | 0.779 | 0.462 | 1.16 | 0.527 | 1.1
RLAKTYETTLK [ALB_Y377_E382K] | 0.556 | 0.809 | 0.557 | 0.681 | 0.406 | 1 | 0.459 | 0.553 | 0.82 | 0.607 | 0.848 | 0.463 | 0.695 | 0.768 | 0.817 | 1.65
